Tests used:
[1] = substrate: CC(C)(COP(=O)(O)OP(=O)(O)OC[C@H]1O[C@@H](n2cnc3c(N)ncnc32)[C@H](O)[C@@H]1OP(=O)(O)O)[C@@H](O)C(=O)NCCC(=O)NCCSC(=O)c1ccc(F)cc1; assay: continuous spectrophotometric assay, dithionite-reduced methyl viologen as electron donor; type: biochemical, Thauera aromatica; conditions: ATP-dependent, 30°C, enriched enzyme
[2] = substrate: CC(C)(COP(=O)(O)OP(=O)(O)OC[C@H]1O[C@@H](n2cnc3c(N)ncnc32)[C@H](O)[C@@H]1OP(=O)(O)O)[C@@H](O)C(=O)NCCC(=O)NCCSC(=O)c1ccccc1; assay: as above; type: biochemical, Thauera aromatica; conditions: ATP-dependent, 30°C, enriched enzyme

B1: 4-F-BCR / class I benzoyl-CoA reductase (BCR, BcrABCD) (Thauera aromatica) (protein)
chain 1: SAKTNPEVIKESSMVKQKEMIAGNYDRLTGTKESGEKVVSTFVPGNLNELIMCFDMVNNLPETNAIQNGMRKQSGGMIMDAEKAGHSEDVCTYVKADIGMMGRGNIAPNGKPMPAPDMLLLSYTGCFTFMKWFELLRHEYKCPTVMLQIPYQGDGKITKNMRDFVVKQLKEEVIPMFEQVSGVKFDIDRLREYLKNSAKAEDDLVWVLESAKNRPSPIDAYFGGVYYIGPMFTAFRGTADAVEYYGLLRGEIEQRIREGKGPITPEGDMKEEKYRLVVEGPPNWTSFREFWKLFYDEGAVVVASSYTKVGGLYDQGFRHDPNDPLGTLADYCLGCYTNNNLPQRVELLEKYMNEYQADGLLINSIKSCNSFSAGQLLMMREIEKRTGKPAAFIETDLVDPRYFSHANVKNRLESYFQMVDQKRSGASLATA
chain 2: STADIIARCEALYEDLDFTAARQWKEADPSRKVIAYMPVYVPREIIHAAGMLPLGIMGGGDGLEVIHGDAFYQSYICRIPRSTIELGLSKRMDFVDGMLFPSICDVIRNLSGMWKLMFPGKYVRYFDVPQNYRDDVGGNYYTAELNELREGLEHLSGRKITDDALRASIKVYNENRKLVQDVYGLRSREPWKVPSADVYLLMRAGLVLPVEEHNQMLKDYLAAAVKVEAQKRDNCRVIINGSFCEQPPLNLIKSIELSGCYIVDDDYMIVHRFLRNEVSTAGDPMQNLSLAFLHESISTAAKYDDKEEDKGKYLLEQVRTNAAEGVIFAAPSFCDPALLERPMLADRCSENKVPYISFKYAENSGQMQPIREQAGTFADSIKLWS
notes: native enzyme enriched from 4-fluorobenzoate-grown cells, heterotetramer of four subunits BcrABCD, no tag; with Benzoyl-CoA reductase subunit A; Benzoyl-CoA reductase subunit D
**Q.** Which Km [1] does the source give for B1 here?
**A.** The Km was 97 µM.

**Q.** And the Km [2]?
**A.** The Km was 43 µM.

— PMC4992971, “ATP-Dependent C–F Bond Cleavage Allows the Complete Degradation of 4-Fluoroaromatics without Oxygen” (mBio, 2016)
